Test results from patent US10695406B2, “Modulation of cellular stress using a B-cell oxidative and/or endoplasmic reticulum stress inhibitor and a targeting agent” (THE UNIVERSITY OF QUEENSLAND, priority 2014, dated 2020).

B1: MPBS-51: IL-22-GLP-1R ligand fusion protein, sequence in FIG. 36, made by Novo Nordisk A/S (protein)
chain: EGTFTSDVSSYLEGQAAKEFIAWLVKGRGGGSSSGGGSSSGGGSSSGGGSSSGAPISSHCRLDKSNFQQPYITNRTFMLAKEASLADNNTDVRLIGEKLFHGVSMSERCYLMKQVLNFTLEEVLFPQSDRFQPYMQEWPFLARLSNRLSTCHIEGDDLHIQRNVQKLKDTVKKLGESGEIKAIGELDLLFMSLRNACIGGSHHHHHH
modifications: MPBS-51 - fusion protein comrpsing a GLP-1 ligand and IL-22
B2: MPBS-52: IL-22-GLP-1R ligand fusion protein, sequence in FIG. 36, made by Novo Nordisk A/S (protein)
chain: DLSKQMEEEAVRLFIEWLKNGGPSSGAPPPSGGSSSGGGSSSGGGSSSGGGSSSGAPISSHCRLDKSNFQQPYITNRTFMLAKEASLADNNTDVRLIGEKLFHGVSMSERCYLMKQVLNFTLEEVLFPQSDRFQPYMQEVVPFLARLSNRLSTCHIEGDDLHIQRNVQKLKDTVKKLGESGEIKAIGELDLLFMSLRNACIGGSHHHHHH
modifications: MPBS-52 - fusion protein comrpsing a GLP-1 ligand and IL-22
B3: MPBS-50: IL-22-GLP-1R ligand fusion protein, sequence in FIG. 36, made by Novo Nordisk A/S (protein)
chain: EGTFTSDVSSYLEGQAAKEFIAWLVKGRHGEGTFTSDVSSYLEGQAAKEFIAWLVKGRAPISSHCRLDKSNFQQPYITNRTFMLAKEASLADNNTDVRLIGEKLFHGVSMSERCYLMKQVLNFTLEEVLFPQSDRFQPYMQEVVPFLARLSNRLSTCHIEGDDLHIQRNVQKLKDTVKKLGESGEIKAIGELDLLFMSLRNACIGGSHHHHHH
modifications: MPBS-50 - fusion protein comrpsing a GLP-1 ligand and IL-22

Tests used:
[1] = Clearance of IL-22 and IL-22 fusion proteins from serum; assay type: in vivo, C57BL/6 mice; settings: 256 ng/g human IL-22 or molar equivalents, i.p.
Procedure: (§1) Targeting to IL-22 to pancreas: Non-obese male C57BL/6 at 6-8 weeks of age. Each IL-22-GLP-1R ligand fusion protein or hIL-22 was administered i.p. at 256 ng/g of IL-22 and the molar equivalents for the individual fusion proteins (n=3 per regimen). IL-22-ScaB1 was administered at […]. Control mice received a PBS control i.p. injection only.
Serum concentrations of IL-22 and the IL-22-GLP-1R ligand fusion proteins were determined using a human IL-22 double-determinant ELISA (Biolegend; 434505) against a standard curve for the individual fusion proteins.

[2] = system: mice with high fat diet induced obesity; assay: Dose-finding efficacy study (IPGTT) in mice on a high fat diet for 27 weeks; assay type: in vivo, C57BL/6 male mice
Procedure: C57BL/6 male mice from 6-8 weeks of age were fed a high fat diet containing 46% of available energy as saturated fat, 34% carbohydrate, 20% protein (Speciality feeds, SF04-027) for 27 weeks and treated as follows:
IL-22-GLP-1R ligand fusion protein or IL-22 alone were administered twice weekly i.p. at the following doses: 1, 4, 16, 64 and 256 ng/g of IL-22 (0.12-15.4 nmoles/g) and the molar equivalents for IL-22-GLP-1 fusion proteins (n=3 per regimen, except for the lowest dose where n=2); control mice received PBS control only. A fasted Intraperitoneal glucose tolerance tests (IPGTT) was performed (2 g kg-i glucose) on day 14 when the experiment was terminated (tissues were not kept for analysis). Body weight was recorded on days 0, 5, 10 and 13.

[3] = system: Murine MIN6N8 cells; assay: ERAI-sXBP1 reporter ER stress in MIN6N8 cells with 0.5 mM palmitate; assay type: cell-based; settings: for ER stress caused by the protein alone: 15.4 nM, no palmitate; for ER stress caused by the protein alone / protection from palmitate-induced ER stress: 24 hours; for protection from palmitate-induced ER stress: co-treated with 0.5 mM palmitate, increasing concentrations; for in vitro efficacy for suppression of ER and oxidative stress (conclusion): murine and human cells
Procedure: (§2) Cell culture: Murine MIN6N8 cells were tested negative for mycoplasma. Cells were routinely cultured in phenol-red free DMEM (Life Technologies) containing 25 mM glucose (3.4 g/L sodium bicarbonate, 50 U/mL penicillin and streptomycin, 71.5 μM β-mercaptoethanol and 10% heat inactivated fetal bovine serum) and transferred to DMEM as above with 5.5 mM glucose 48 h prior to experimentation. Human LS174T cells were cultured in DMEM containing 10% heat-inactivated fetal bovine serum, 50 U mL^−1 penicillin and streptomycin.
ER Stress Measurement: MIN6N8 cells were transfected with the ERAI reporter plasmid (F-XBP1ΔDBD-venus, using Lipofectamine 2000 according to the manufacturer's instructions. For ERAI there was negligible fluorescence in the absence of ER stressors, but upon induction of ER stress, splicing of XBP1 mRNA by IRE1a results in the translation of Venus but not an active form of XBP1. Fluorescence was measured (excitation: 485 nm; emission: 520 nm) using a POLARstar Omega plate reader and cells were treated 48 h after transfection. […] After 24 h, ERAI-sXBP1 GFP reporter fluorescence was measured.

[4] = system: STAT3 phosphorylation; assay: pStat3 staining in pancreatic islets vs liver, intestine and skin; assay type: in vivo, C57BL/6 mice; settings: for pStat3 ratio pancreatic islets vs intestine, fold change relative to human IL-22 / pStat3 ratio pancreatic islets vs liver, fold change relative to human IL-22 / pStat3 ratio pancreatic islets vs skin, fold change relative to human IL-22: molar equivalent of 256 ng/g IL-22, 30 min
Procedure: as §1
To assess in vivo activation of the IL-22 receptor signaling pathway, after 30 min the mice were sacrificed and the following tissues were snap frozen and sections were prepared for each mouse: pancreas, skin (ear, tail), colon (rolled), and liver. Sections were stained by immunofluorescence for phosphorylated STAT3 using the Phospho-Stat3 (Tyr705) (D3A7) antibody.

[5] = system: Human LS174T cells; assay: Oxidative stress (nitrite, Griess assay) in LS174T cells with 0.5 mM palmitate; assay type: cell-based; settings: 2 h prior to 0.5 mM palmitate for 30 min
Procedure: as §2
The Griess Reagent Kit for Nitrite Determination was performed according to the manufacturer's instructions (Molecular Probes) to assess the intracellular levels of nitrite (the stable metabolite of nitric oxide) using lysates of β-cells prepared in RIPA buffer (150 mM NaCl, 1% NP40, 0.5% sodium deoxycholate, 0.1% SDS, 50 mM Tris, pH 7.5).

Molecule	clearance / serum concentration over the first 2 hours [1]	body weight changes during treatment ([2]; days 0, 5, 10 and 13)	mean reduction in the increased AUC of the IPGTT of HFD vs normal chow fed control mice ([2]; doses >0.96 nmoles/g, two-week therapy)	efficacy in IPGTT below 0.96 nmoles/g ([2]; two lowest doses)	ER stress caused by the protein alone [3]	fold more protein required for the same effect as recombinant mouse IL-22 in reducing ER stress ([3]; murine MIN6N8 cells, 0.5 mM palmitate, 24 h)	protection from palmitate-induced ER stress [3]	in vitro efficacy for suppression of ER and oxidative stress (conclusion) [3]	STAT3 phosphorylation in tissues in vivo ([4]; 30 min after administration)	pStat3 ratio pancreatic islets vs intestine, fold change relative to human IL-22 [4]	pStat3 ratio pancreatic islets vs liver, fold change relative to human IL-22 [4]	pStat3 ratio pancreatic islets vs skin, fold change relative to human IL-22 [4]	protection from palmitate-induced oxidative stress (nitrite production) [5]
human IL-22: recombinant human IL-22	cleared slightly more slowly	little change in body weight	> 50%	diminished substantially	did not cause ER stress	~16 fold							
B1	lower and somewhat more extended/later peak concentration				did not cause ER stress		did not effectively suppress ER stress at any of the concentrations tested	appears inactive in-vitro	did induce STAT3 phosphorylation in the pancreas as well as liver and gut	not greater than for native human IL-22	not greater than for native human IL-22	113 fold	did not effectively suppress oxidative stress at any of the concentrations tested
B2	lower and somewhat more extended/later peak concentration				did not cause ER stress		effectively suppressed ER stress	have retained in vitro efficacy		338 fold	396 fold	4,840 fold	effectively suppressed oxidative stress with a similar efficacy to equivalent molar concentrations of human IL-22
B3	cleared with similar kinetics to recombinant human IL-22				did not cause ER stress		inhibited ER stress in a dose dependent manner at a similar efficacy to a molar equivalent concentration of human IL-22	have retained in vitro efficacy		not greater than for native human IL-22	not greater than for native human IL-22	45 fold	inhibited oxidative stress (nitrite production) but only toward the highest end of the concentration range used
